From patent US20210253718A1, “FRIZZLED5 PROTEIN-BINDING AGENTS” (Modmab Therapeutics Corporation, priority 2016, published 2021)

T1: FZD8 CRD (Homo sapiens, UniProt Q9H461)
T1 construct: K31-D155; GPI anchor signal (C); expressed in transfected cells; host or cells: CHO cells, lentiviral pLenti-puro
T1 sequence (Q9H461 31-155): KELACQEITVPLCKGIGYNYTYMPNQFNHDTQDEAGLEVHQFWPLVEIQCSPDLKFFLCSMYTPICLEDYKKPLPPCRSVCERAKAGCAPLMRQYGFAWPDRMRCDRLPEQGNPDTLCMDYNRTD

T2: FZD5 CRD (Homo sapiens, UniProt Q13467)
T2 construct: K29-T156; GPI anchor signal (C); expressed in transfected cells; host or cells: CHO cells, lentiviral pLenti-puro
T2 sequence (Q13467 29-156): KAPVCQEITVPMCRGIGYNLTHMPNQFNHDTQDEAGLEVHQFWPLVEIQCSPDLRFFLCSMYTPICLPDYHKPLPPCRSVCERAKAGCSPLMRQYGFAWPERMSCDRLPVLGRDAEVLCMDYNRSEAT

T3: FZD6 CRD (Homo sapiens, UniProt O60353)
T3 construct: S20-P146; GPI anchor signal (C); expressed in transfected cells; host or cells: CHO cells, lentiviral pLenti-puro
T3 sequence (O60353 20-146): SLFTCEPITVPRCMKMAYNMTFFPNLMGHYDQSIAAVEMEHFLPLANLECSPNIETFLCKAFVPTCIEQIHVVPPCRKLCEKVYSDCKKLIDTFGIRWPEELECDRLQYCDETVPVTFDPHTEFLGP

B1: Fab-2928: anti-FZD5 Fab with antibody variable region Fv-2928; CDR SEQ ID NOs: 35, 36, 67, 105, 143, 175 (antibody, V domains shown)
VH: EVQLVESGGGLVQPGGSLRLSCAASGFNISYSSIHWVRQAPGKGLEWVASIYPSYSSTYYADSVKGRFTISADTSKNTAYLQMNSLRAEDTAVYYCARYYAMDYWGQGTLVTVSS
VL: DIQMTQSPSSLSASVGDRVTITCRASQSVSSAVAWYQQKPGKAPKLLIYSASSLYSGVPSRFSGSRSGTDFTLTISSLQPEDFATYYCQQAFYYPITFGQGTKVEIK
B2: Fab-2927: anti-FZD5 Fab with antibody variable region Fv-2927; CDR SEQ ID NOs: 35, 36, 66, 104, 142, 174 (antibody, V domains shown)
VH: EVQLVESGGGLVQPGGSLRLSCAASGFNIYYSSMHWVRQAPGKGLEWVASIYPSYGYTSYADSVKGRFTISADTSKNTAYLQMNSLRAEDTAVYYCARYGYYGFDYWGQGTLVTVSS
VL: DIQMTQSPSSLSASVGDRVTITCRASQSVSSAVAWYQQKPGKAPKLLIYSASSLYSGVPSRFSGSRSGTDFTLTISSLQPEDFATYYCQQWGSHGYLITFGQGTKVEIK
B3: Fab-2929: anti-FZD5 Fab with antibody variable region Fv-2929; CDR SEQ ID NOs: 35, 36, 68, 106, 144, 162 (antibody, V domains shown)
VH: EVQLVESGGGLVQPGGSLRLSCAASGFNISYYYIHWVRQAPGKGLEWVASIYPSSSSTSYADSVKGRFTISADTSKNTAYLQMNSLRAEDTAVYYCARGAMDYWGQGTLVTVSS
VL: DIQMTQSPSSLSASVGDRVTITCRASQSVSSAVAWYQQKPGKAPKLLIYSASSLYSGVPSRFSGSRSGTDFTLTISSLQPEDFATYYCQQWYSSYGLITFGQGTKVEIK

Key:
[1] = test system: CHO cells not expressing Frizzled CRD; assay: Flow cytometry of anti-FZD5 Fab binding to CHO cells not expressing Frizzled CRD (background)
Text: The binding of anti-FZD5 Fabs to cell surface-expressed Frizzled protein was further determined for each member of the Frizzled family via flow cytometry and immunofluorescence analysis of a panel of 10 CHO cell lines, each ectopically over-expressing the extracellular cysteine-rich domain (CRD) of a different Frizzled protein family member.

ASPC-1 cells [2] = assay: Effect of anti-FZD5 Fabs on proliferation of pancreatic cancer cell lines (percent growth inhibition); assay type: cell-based, human; settings: Fab 2 μg/ml
RWP1 cells [3] = assay: as above; assay type: cell-based, human; settings: Fab 2 μg/ml
FZD8 CRD = molecular target: T1, FZD8 CRD; assay: Immunofluorescence of anti-FZD5 Fab binding to CHO cells overexpressing Frizzled CRD; set-up: key: −: no binding; +: very weak binder; ++: weak binder; +++: good binder; ++++: very good binder
In short: (§1)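 Immunofluorescence readout of anti-FZD5 Fab staining on CHO cells ectopically overexpressing a single Frizzled cysteine-rich domain. Each CRD was fused to a myc tag and GPI anchor for plasma-membrane display; flow cytometry was run in parallel.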

FZD5 CRD = molecular target: T2, FZD5 CRD; assay: as above; set-up: key: −: no binding; +: very weak binder; ++: weak binder; +++: good binder; ++++: very good binder
In short: as §1

FZD7 CRD = molecular target: T4, FZD7 CRD (Homo sapiens, UniProt O75084); assay: as above; set-up: key: −: no binding; +: very weak binder; ++: weak binder; +++: good binder; ++++: very good binder
T4 construct: D45-S169; GPI anchor signal (C); expressed in transfected cells; host or cells: CHO cells, lentiviral pLenti-puro
In short: as §1

FZD2 CRD = molecular target: T5, FZD2 CRD (Homo sapiens, UniProt Q14332); assay: as above; set-up: key: −: no binding; +: very weak binder; ++: weak binder; +++: good binder; ++++: very good binder
T5 construct: D35-P161; GPI anchor signal (C); expressed in transfected cells; host or cells: CHO cells, lentiviral pLenti-puro
In short: as §1

FZD6 CRD = molecular target: T3, FZD6 CRD; assay: as above; set-up: key: −: no binding; +: very weak binder; ++: weak binder; +++: good binder; ++++: very good binder
In short: as §1

HPAFII cells = assay: Effect of anti-FZD5 Fabs on proliferation of pancreatic cancer cell lines (percent growth inhibition); assay type: cell-based, human; settings: for percent growth inhibition, HPAFII 2 μg/ml: Fab 2 μg/ml; for percent growth inhibition, HPAFII 10 μg/ml: Fab 10 μg/ml
Protocol: (§2) The effect of presently disclosed anti-FZD5 Fabs on proliferation of RNF43 loss-of-function mutant pancreatic cancer cell lines HPAFII, PATU8988S and ASPC-1; and on pancreatic cancer cell line RWP1, was tested at […] and 10 μg/ml.

RWP1 cells [4] = assay: as above; assay type: cell-based, human; settings: Fab 10 μg/ml
Protocol: as §2

PATU8988S cells [5] = assay: as above; assay type: cell-based, human; settings: Fab 10 μg/ml
Protocol: as §2

ASPC-1 cells [6] = assay: as above; assay type: cell-based, human; settings: Fab 10 μg/ml
Protocol: as §2

PATU8988S cells [7] = assay: as above; assay type: cell-based, human; settings: Fab 2 μg/ml

| Molecule | Median fluorescence, Frizzled CRD overexpressed on CHO cells: None [1] | percent growth inhibition, ASPC-1 2 μg/ml (ASPC-1 cells [2]) [%] | percent growth inhibition, RWP1 2 μg/ml (RWP1 cells [3]) [%] | Immunofluorescence binding, Frizzled CRD overexpressed on CHO cells: FZD8 (FZD8 CRD) | Immunofluorescence binding, Frizzled CRD overexpressed on CHO cells: FZD5 (FZD5 CRD) | Immunofluorescence binding, Frizzled CRD overexpressed on CHO cells: FZD7 (FZD7 CRD) | Immunofluorescence binding, Frizzled CRD overexpressed on CHO cells: FZD2 (FZD2 CRD) | Immunofluorescence binding, Frizzled CRD overexpressed on CHO cells: FZD6 (FZD6 CRD) | percent growth inhibition, HPAFII 2 μg/ml (HPAFII cells) [%] | percent growth inhibition, HPAFII 10 μg/ml (HPAFII cells) [%] | percent growth inhibition, RWP1 10 μg/ml (RWP1 cells [4]) [%] | percent growth inhibition, PATU8988s 10 μg/ml (PATU8988S cells [5]) [%] | percent growth inhibition, ASPC-1 10 μg/ml (ASPC-1 cells [6]) [%] | percent growth inhibition, PATU8988s 2 μg/ml (PATU8988S cells [7]) [%] |
| --- | --- | --- | --- | --- | --- | --- | --- | --- | --- | --- | --- | --- | --- | --- |
| B1 | 3.68 | 2.33 | −8.19 | − | ++++ | − | − | − | −17.90 | −25.51 | 32.47 | −30.22 | 6.27 | −2.11 |
| B2 | 3.79 | 12.47 | 46.02 | + | ++++ | ++++ | +++ | − | 6.46 | −7.63 | 70.38 | −23.95 | 31.00 | −15.15 |
| B3 | 3.19 | 41.68 | 0.41 | − | ++++ | + | − | − | 20.20 | 33.42 | 2.21 | −27.58 | 41.25 | −24.05 |
